Data from patent US20240199745A1, “ANTI-EGFR ANTIBODY DRUG CONJUGATES” (priority 2016, published 2024).

Columns and labels:
[1] = target: human EGFR (huEGFR) over-expressed on mcl-1-/- mouse embryonic fibroblasts (human, UniProt P00533 25-1210); test: cell-based or functional assay
[2] = target: EGFR on EGFR positive non-small cell lung cancer cells NCI-H1650 (UniProt P00533 25-1210); test: cell-based or functional assay

Binder	huEGFR+ mcl-1-/- MEF EC50 [1] [nM]	H1650 CTG-3D EC50 [2] [µg/mL]	H1650 GFP Flourescence EC50 [2] [µg/mL]
AbG-TV (antibody, human IgG1, kappa, V domains shown, synthon TV on reduced interchain cysteines; average DAR 3.7 per ADC) VH: EVQLQESGPGLVKPSQTLSLTCTVSGYSISNDFAWNWIRQLPGKGLEWMGYISYKGNTRYQPSLKSRITISRDTSKNQFFLKLNSVTAADTATYYCVTASRGLPYWGQGTLVTVSS VL: DIQMTQSPSSMSVSVGDRVTITCHSSQDITYNIGWLQQKPGKSFKGLIYHGANLDDGVPSRFSGSGSGTDYTLTISSLQPEDFATYYCVQYDEFPWTFGGGTKLEIKR	2.6	0.03	0.04
AbA-LB (antibody, human IgG1, kappa, V domains shown, synthon LB on reduced interchain cysteines; average DAR 2.4 per ADC) VH: EVQLQESGPGLVKPSQTLSLTCTVSGYSISRDFAWNWIRQPPGKGLEWMGYISYNGNTRYQPSLKSRITISRDTSKNQFFLKLNSVTAADTATYYCVTASRGFPYWGQGTLVTVSS VL: DIQMTQSPSSMSVSVGDRVTITCHSSQDINSNIGWLQQKPGKSFKGLIYHGTNLDDGVPSRFSGSGSGTDYTLTISSLQPEDFATYYCVQYAQFPWTFGGGTKLEIKR	27	4.05	2.48
AbA-WD (antibody, human IgG1, kappa, V domains shown, synthon WD on reduced interchain cysteines; average DAR 1.8 per ADC) VH: EVQLQESGPGLVKPSQTLSLTCTVSGYSISRDFAWNWIRQPPGKGLEWMGYISYNGNTRYQPSLKSRITISRDTSKNQFFLKLNSVTAADTATYYCVTASRGFPYWGQGTLVTVSS VL: DIQMTQSPSSMSVSVGDRVTITCHSSQDINSNIGWLQQKPGKSFKGLIYHGTNLDDGVPSRFSGSGSGTDYTLTISSLQPEDFATYYCVQYAQFPWTFGGGTKLEIKR	304	23.6	7.62
AbK-AAD (antibody, human IgG1, kappa, V domains shown, synthon AAD on reduced interchain cysteines; average DAR 2.8 per ADC) VH: EVQLQESGPGLVKPSQTLSLTCTVSGYSISRDFAWNWIRQPPGKGLEWMGYISYNGNTRYQPSLKSRITISRDTSKNQFFLKLNSVTAADTATYYCVTASRGFPWWGQGTLVTVSS VL: DIQMTQSPSSMSVSVGDRVTITCHSSQDITYNVGWLQQKPGKSFKGLIYHGSNLDHGVPSRFSGSGSGTDYTLTISSLQPEDFATYYCVQYDDFPWTFGGGTKLEIKR	0.4	0.01	0.06
AbK-YY (antibody, human IgG1, kappa, V domains shown, synthon YY on reduced interchain cysteines; average DAR 1.7 per ADC) VH: EVQLQESGPGLVKPSQTLSLTCTVSGYSISRDFAWNWIRQPPGKGLEWMGYISYNGNTRYQPSLKSRITISRDTSKNQFFLKLNSVTAADTATYYCVTASRGFPWWGQGTLVTVSS VL: DIQMTQSPSSMSVSVGDRVTITCHSSQDITYNVGWLQQKPGKSFKGLIYHGSNLDHGVPSRFSGSGSGTDYTLTISSLQPEDFATYYCVQYDDFPWTFGGGTKLEIKR	47	0.49	1.09
AbK-AAA (antibody, human IgG1, kappa, V domains shown, synthon AAA on reduced interchain cysteines; average DAR 1.6 per ADC) VH: EVQLQESGPGLVKPSQTLSLTCTVSGYSISRDFAWNWIRQPPGKGLEWMGYISYNGNTRYQPSLKSRITISRDTSKNQFFLKLNSVTAADTATYYCVTASRGFPWWGQGTLVTVSS VL: DIQMTQSPSSMSVSVGDRVTITCHSSQDITYNVGWLQQKPGKSFKGLIYHGSNLDHGVPSRFSGSGSGTDYTLTISSLQPEDFATYYCVQYDDFPWTFGGGTKLEIKR	3.4	0.11	0.16
AbG-AAD (antibody, human IgG1, kappa, V domains shown, synthon AAD on reduced interchain cysteines; average DAR 3.4 per ADC) VH: EVQLQESGPGLVKPSQTLSLTCTVSGYSISNDFAWNWIRQLPGKGLEWMGYISYKGNTRYQPSLKSRITISRDTSKNQFFLKLNSVTAADTATYYCVTASRGLPYWGQGTLVTVSS VL: DIQMTQSPSSMSVSVGDRVTITCHSSQDITYNIGWLQQKPGKSFKGLIYHGANLDDGVPSRFSGSGSGTDYTLTISSLQPEDFATYYCVQYDEFPWTFGGGTKLEIKR	108	0.02	0.03
AbK-CZ (antibody, human IgG1, kappa, V domains shown, synthon CZ on reduced interchain cysteines; average DAR 3.4 per ADC) VH: EVQLQESGPGLVKPSQTLSLTCTVSGYSISRDFAWNWIRQPPGKGLEWMGYISYNGNTRYQPSLKSRITISRDTSKNQFFLKLNSVTAADTATYYCVTASRGFPWWGQGTLVTVSS VL: DIQMTQSPSSMSVSVGDRVTITCHSSQDITYNVGWLQQKPGKSFKGLIYHGSNLDHGVPSRFSGSGSGTDYTLTISSLQPEDFATYYCVQYDDFPWTFGGGTKLEIKR	0.1	0.08	0.21
AbG-YY (antibody, human IgG1, kappa, V domains shown, synthon YY on reduced interchain cysteines; average DAR 2.2 per ADC) VH: EVQLQESGPGLVKPSQTLSLTCTVSGYSISNDFAWNWIRQLPGKGLEWMGYISYKGNTRYQPSLKSRITISRDTSKNQFFLKLNSVTAADTATYYCVTASRGLPYWGQGTLVTVSS VL: DIQMTQSPSSMSVSVGDRVTITCHSSQDITYNIGWLQQKPGKSFKGLIYHGANLDDGVPSRFSGSGSGTDYTLTISSLQPEDFATYYCVQYDEFPWTFGGGTKLEIKR	> 500	0.4	1.1
AbA-TV (antibody, human IgG1, kappa, V domains shown, synthon TV on reduced interchain cysteines; average DAR 3.7 per ADC) VH: EVQLQESGPGLVKPSQTLSLTCTVSGYSISRDFAWNWIRQPPGKGLEWMGYISYNGNTRYQPSLKSRITISRDTSKNQFFLKLNSVTAADTATYYCVTASRGFPYWGQGTLVTVSS VL: DIQMTQSPSSMSVSVGDRVTITCHSSQDINSNIGWLQQKPGKSFKGLIYHGTNLDDGVPSRFSGSGSGTDYTLTISSLQPEDFATYYCVQYAQFPWTFGGGTKLEIKR	3	0.34	0.69
AbG-AAA (antibody, human IgG1, kappa, V domains shown, synthon AAA on reduced interchain cysteines; average DAR 1.9 per ADC) VH: EVQLQESGPGLVKPSQTLSLTCTVSGYSISNDFAWNWIRQLPGKGLEWMGYISYKGNTRYQPSLKSRITISRDTSKNQFFLKLNSVTAADTATYYCVTASRGLPYWGQGTLVTVSS VL: DIQMTQSPSSMSVSVGDRVTITCHSSQDITYNIGWLQQKPGKSFKGLIYHGANLDDGVPSRFSGSGSGTDYTLTISSLQPEDFATYYCVQYDEFPWTFGGGTKLEIKR	220	0.12	0.17
AbK-TV (antibody, human IgG1, kappa, V domains shown, synthon TV on reduced interchain cysteines; average DAR 2.4 per ADC) VH: EVQLQESGPGLVKPSQTLSLTCTVSGYSISRDFAWNWIRQPPGKGLEWMGYISYNGNTRYQPSLKSRITISRDTSKNQFFLKLNSVTAADTATYYCVTASRGFPWWGQGTLVTVSS VL: DIQMTQSPSSMSVSVGDRVTITCHSSQDITYNVGWLQQKPGKSFKGLIYHGSNLDHGVPSRFSGSGSGTDYTLTISSLQPEDFATYYCVQYDDFPWTFGGGTKLEIKR	0.15	0.05	0.16
AbK-TX (antibody, human IgG1, kappa, V domains shown, synthon TX on reduced interchain cysteines; average DAR 2.2 per ADC) VH: EVQLQESGPGLVKPSQTLSLTCTVSGYSISRDFAWNWIRQPPGKGLEWMGYISYNGNTRYQPSLKSRITISRDTSKNQFFLKLNSVTAADTATYYCVTASRGFPWWGQGTLVTVSS VL: DIQMTQSPSSMSVSVGDRVTITCHSSQDITYNVGWLQQKPGKSFKGLIYHGSNLDHGVPSRFSGSGSGTDYTLTISSLQPEDFATYYCVQYDDFPWTFGGGTKLEIKR	0.79	1.07	1.47
